Laboratory results from patent US20260242735A1 (UNIVERSIT T BASEL, published 2026).
Blank lines part the entries; values can stand above or below the binder they belong to.

Key:
human wild-type CD33 [1] = target: T1, human wild-type CD33 (human, UniProt P20138 18-364); test: flow cytometry, Fab at 1.00 ug/ml on HEK293-T cells expressing CD33 against vector alone
T1 construct: also called SIGLEC3; P67
Experimental: (§1) Serial dilutions of each Fab were tested for immunoreactivity against cells expressing wild-type CD33 or vector alone. The optimal screening concentration for the Fabs was determined based on the raw signal values and signal-to-background calculations. Each point represents the mean of four replicates.

human wild-type CD33 [2] = target: T1, human wild-type CD33; test: flow cytometry, Fab at 0.50 ug/ml on HEK293-T cells expressing CD33 against vector alone
Experimental: as §1

human CD33 H346A = target: T2, human CD33 H346A (human, UniProt P20138 18-364); test: alanine scan; flow cytometry, HEK293-T cells expressing the mutant; normalised to WT CD33;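 also: antibodies (IgG or Fab) at doses pre-set by titration on wild-type CD33, duplicate readings with background fluorescence subtracted, mutants made by site-directed alanine substitution (alanine changed to serine)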
T2 construct: Alanine-scan mutant clone of CD33 transiently transfected into HEK293-T cells
Experimental: (§2) An alanine scan on human CD33 was performed to the determine the residues on CD33 that are involved in binding to the antibodies investigated. […] Briefly, a mutation library of CD33 was created by high-throughput, site-directed mutagenesis. Each residue was individually mutated to alanine, with alanine codons mutated to serine. The mutant library was arrayed in 384-well microplates and transiently transfected into HEK293-T. Following transfection, cells were incubated with the indicated antibodies (IgG or Fab) at concentrations pre-determined using an independent immunofluorescence titration curve on wild type CD33. […] Binding of each antibody to each mutant clone was determined in duplicates. For each point, background fluorescence was subtracted from the raw data, which were then normalized to antibody reactivity with wild type CD33.
(§3) Critical residues for antibody binding (outlined in dark grey) were residues whose mutations led to a binding of the test Abs of less than 20%. Additional secondary residues (outlined in light grey) were identified that led to a binding of the test Abs of between 20 and 40% as compared to the wild type CD33.

human CD33 G347A = target: T3, human CD33 G347A (human, UniProt P20138 18-364); test: as above
T3 construct: Alanine-scan mutant clone of CD33 transiently transfected into HEK293-T cells
Experimental: as §2, §3

human CD33 M348A = target: T4, human CD33 M348A (human, UniProt P20138 18-364); test: as above
T4 construct: Alanine-scan mutant clone of CD33 transiently transfected into HEK293-T cells
Experimental: as §2, §3

human CD33 N349A = target: T5, human CD33 N349A (human, UniProt P20138 18-364); test: as above
T5 construct: Alanine-scan mutant clone of CD33 transiently transfected into HEK293-T cells
Experimental: as §2, §3

human CD33 P350A = target: T6, human CD33 P350A (human, UniProt P20138 18-364); test: as above
T6 construct: Alanine-scan mutant clone of CD33 transiently transfected into HEK293-T cells
Experimental: as §2, §3

human CD33 S351A = target: T7, human CD33 S351A (human, UniProt P20138 18-364); test: as above
T7 construct: Alanine-scan mutant clone of CD33 transiently transfected into HEK293-T cells
Experimental: as §2, §3

human CD33 K352A = target: T8, human CD33 K352A (human, UniProt P20138 18-364); test: as above
T8 construct: Alanine-scan mutant clone of CD33 transiently transfected into HEK293-T cells
Experimental: as §2, §3

human CD33 D353A = target: T9, human CD33 D353A (human, UniProt P20138 18-364); test: as above
T9 construct: Alanine-scan mutant clone of CD33 transiently transfected into HEK293-T cells
Experimental: as §2, §3

human CD33 T354A = target: T10, human CD33 T354A (human, UniProt P20138 18-364); test: as above
T10 construct: Alanine-scan mutant clone of CD33 transiently transfected into HEK293-T cells
Experimental: as §2, §3

human CD33 S355A = target: T11, human CD33 S355A (human, UniProt P20138 18-364); test: as above
T11 construct: Alanine-scan mutant clone of CD33 transiently transfected into HEK293-T cells
Experimental: as §2, §3

human CD33 T356A = target: T12, human CD33 T356A (human, UniProt P20138 18-364); test: as above
T12 construct: Alanine-scan mutant clone of CD33 transiently transfected into HEK293-T cells
Experimental: as §2, §3

human CD33 E357A = target: T13, human CD33 E357A (human, UniProt P20138 18-364); test: as above
T13 construct: Alanine-scan mutant clone of CD33 transiently transfected into HEK293-T cells
Experimental: as §2, §3

human CD33 Y358A = target: T14, human CD33 Y358A (human, UniProt P20138 18-364); test: as above
T14 construct: Alanine-scan mutant clone of CD33 transiently transfected into HEK293-T cells
Experimental: as §2, §3

human CD33 S359A = target: T15, human CD33 S359A (human, UniProt P20138 18-364); test: as above
T15 construct: Alanine-scan mutant clone of CD33 transiently transfected into HEK293-T cells
Experimental: as §2, §3

human CD33 E360A = target: T16, human CD33 E360A (human, UniProt P20138 18-364); test: as above
T16 construct: Alanine-scan mutant clone of CD33 transiently transfected into HEK293-T cells
Experimental: as §2, §3

human CD33 V361A = target: T17, human CD33 V361A (human, UniProt P20138 18-364); test: as above
T17 construct: Alanine-scan mutant clone of CD33 transiently transfected into HEK293-T cells
Experimental: as §2, §3

human CD33 R362A = target: T18, human CD33 R362A (human, UniProt P20138 18-364); test: as above
T18 construct: Alanine-scan mutant clone of CD33 transiently transfected into HEK293-T cells
Experimental: as §2, §3

human CD33 T363A = target: T19, human CD33 T363A (human, UniProt P20138 18-364); test: as above
T19 construct: Alanine-scan mutant clone of CD33 transiently transfected into HEK293-T cells
Experimental: as §2, §3

human CD33 Q364A = target: T20, human CD33 Q364A (human, UniProt P20138 18-363); test: as above
T20 construct: Alanine-scan mutant clone of CD33 transiently transfected into HEK293-T cells
T20 sequence (P20138 18-364 Q364A limits assumed): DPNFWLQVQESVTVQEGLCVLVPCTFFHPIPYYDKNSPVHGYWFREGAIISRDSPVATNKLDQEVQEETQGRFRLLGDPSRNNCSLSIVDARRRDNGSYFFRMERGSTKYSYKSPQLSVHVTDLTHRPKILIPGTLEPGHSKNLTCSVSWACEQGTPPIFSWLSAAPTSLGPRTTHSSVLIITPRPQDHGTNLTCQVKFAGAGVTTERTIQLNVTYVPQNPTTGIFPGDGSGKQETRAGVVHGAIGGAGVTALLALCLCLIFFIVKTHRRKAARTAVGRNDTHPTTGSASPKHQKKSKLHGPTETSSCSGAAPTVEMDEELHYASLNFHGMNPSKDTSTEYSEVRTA
Experimental: as §2, §3

T1 sequence (P20138 18-364 limits assumed): as the sequence (P20138 18-364 Q364A limits assumed) above, with A347Q counted along it
T15 sequence (P20138 18-364 S359A limits assumed): as the sequence (P20138 18-364 Q364A limits assumed) above, with S342A, A347Q counted along it
T19 sequence (P20138 18-364 T363A limits assumed): as the sequence (P20138 18-364 Q364A limits assumed) above, with T346A, A347Q counted along it
T7 sequence (P20138 18-364 S351A limits assumed): as the sequence (P20138 18-364 Q364A limits assumed) above, with S334A, A347Q counted along it
T4 sequence (P20138 18-364 M348A limits assumed): as the sequence (P20138 18-364 Q364A limits assumed) above, with M331A, A347Q counted along it
T8 sequence (P20138 18-364 K352A limits assumed): as the sequence (P20138 18-364 Q364A limits assumed) above, with K335A, A347Q counted along it
T10 sequence (P20138 18-364 T354A limits assumed): as the sequence (P20138 18-364 Q364A limits assumed) above, with T337A, A347Q counted along it
T16 sequence (P20138 18-364 E360A limits assumed): as the sequence (P20138 18-364 Q364A limits assumed) above, with E343A, A347Q counted along it
T18 sequence (P20138 18-364 R362A limits assumed): as the sequence (P20138 18-364 Q364A limits assumed) above, with R345A, A347Q counted along it
T6 sequence (P20138 18-364 P350A limits assumed): as the sequence (P20138 18-364 Q364A limits assumed) above, with P333A, A347Q counted along it
T17 sequence (P20138 18-364 V361A limits assumed): as the sequence (P20138 18-364 Q364A limits assumed) above, with V344A, A347Q counted along it
T9 sequence (P20138 18-364 D353A limits assumed): as the sequence (P20138 18-364 Q364A limits assumed) above, with D336A, A347Q counted along it
T2 sequence (P20138 18-364 H346A limits assumed): as the sequence (P20138 18-364 Q364A limits assumed) above, with H329A, A347Q counted along it
T14 sequence (P20138 18-364 Y358A limits assumed): as the sequence (P20138 18-364 Q364A limits assumed) above, with Y341A, A347Q counted along it
T13 sequence (P20138 18-364 E357A limits assumed): as the sequence (P20138 18-364 Q364A limits assumed) above, with E340A, A347Q counted along it
T3 sequence (P20138 18-364 G347A limits assumed): as the sequence (P20138 18-364 Q364A limits assumed) above, with G330A, A347Q counted along it
T5 sequence (P20138 18-364 N349A limits assumed): as the sequence (P20138 18-364 Q364A limits assumed) above, with N332A, A347Q counted along it
T11 sequence (P20138 18-364 S355A limits assumed): as the sequence (P20138 18-364 Q364A limits assumed) above, with S338A, A347Q counted along it
T12 sequence (P20138 18-364 T356A limits assumed): as the sequence (P20138 18-364 Q364A limits assumed) above, with T339A, A347Q counted along it

B1: Refmab #2 Fab fragment (Fab, V domains shown)
VH: QVQLVQSGAEVKKPGSSVKVSCKASGGTFSDYAISWVRQAPGQGLEWMGRIIPILGVADYAQKFQGRVTITADKSTRTAYMELSSLRSEDTAVYYCARNWADAFDIWGQGTMVTVSS
VL: DIQLTQSPSSLSASVGDRVTITCRASQGISSVLAWYQQKPGKAPKLLIYDASSLESGVPSRFSGSGSGTDFTLTISSLQPEDFATYYCQQFDSSITFGQGTKLEIK
Signal:Background (human wild-type CD33 [1]): 7 signal:background ratio

B4: Refmab #3 Fab fragment (Fab, V domains shown)
VH: QVQLVQSGAEVKKPGSSVKVSCKASGYTFTDYNMHWVRQAPGQGLEWIGYIYPYNGGTGYNQKFKSKATITADESTNTAYMELSSLRSEDTAVYYCARGRPAMDYWGQGTLVTVSS
VL: DIQMTQSPSSLSASVGDRVTITCRASESVDNYGISFMNWFQQKPGKAPKLLIYAASNQGSGVPSRFSGSGSGTDFTLTISSLQPDDFATYYCQQSKEVPWTFGQGTKVEIK
Signal:Background (human wild-type CD33 [1]): 12 signal:background ratio

Continued, values first:

Signal:Background (human wild-type CD33 [2]): 17 signal:background ratio
B2: Refmab #5 Fab fragment (Fab, V domains shown)
VH: QVQLVQSGAEVKKPGASVKVSCKASGYTFTNYDINWVRQAPGQGLEWIGWIYPGDGSTKYNEKFKAKATLTADTSTSTAYMELRSLRSDDTAVYYCASGYEDAMDYWGQGTTVTVSS
VL: DIQMTQSPSSLSASVGDRVTINCKASQDINSYLSWFQQKPGKAPKTLIYRANRLVDGVPSRFSGSGSGQDYTLTISSLQPEDFATYYCLQYDEFPLTFGGGTKVEIK

Mean % WT Binding (human CD33 H346A): 114 % WT binding | Mean % WT Binding (human CD33 G347A): 104 % WT binding | Mean % WT Binding (human CD33 M348A): 92.3 % WT binding | Mean % WT Binding (human CD33 N349A): 84.9 % WT binding | Mean % WT Binding (human CD33 P350A): 93.8 % WT binding | Mean % WT Binding (human CD33 S351A): 88.9 % WT binding | Mean % WT Binding (human CD33 K352A): 112 % WT binding | Mean % WT Binding (human CD33 D353A): 74.6 % WT binding | Mean % WT Binding (human CD33 T354A): 84.7 % WT binding | Mean % WT Binding (human CD33 S355A): 126 % WT binding | Mean % WT Binding (human CD33 T356A): 89.3 % WT binding | Mean % WT Binding (human CD33 E357A): 75.3 % WT binding | Mean % WT Binding (human CD33 Y358A): 97.9 % WT binding | Mean % WT Binding (human CD33 S359A): 87.2 % WT binding | Mean % WT Binding (human CD33 E360A): 107 % WT binding | Mean % WT Binding (human CD33 V361A): 84.5 % WT binding | Mean % WT Binding (human CD33 R362A): 101 % WT binding | Mean % WT Binding (human CD33 T363A): 90.1 % WT binding | Mean % WT Binding (human CD33 Q364A): 107 % WT binding
B3: Refmab #5 (antibody, V domains shown)
VH: B2 VH
VL: B2 VL
notes: Full-length format is human IgG1 Fc silent (PG-LALA); The alanine scan used IgG or Fab
